From patent US10660939 (PALATIN TECHNOLOGIES, dated 2020)
Positions of bridges follow the written chain, without caps; N, C: chain ends. Non-standard residues stand in square brackets, D forms with d. 2Nal = N[C@@H](Cc1ccc2ccccc2c1)C(=O)O; Aad = N[C@@H](CCCC(=O)O)C(=O)O; Orn = NCCC[C@H](N)C(=O)O; Dab = NCC[C@H](N)C(=O)O

Tests used:
[1] = biological target: T1, human melanocortin receptor-4 (human, UniProt P32245 1-332); test: competition with [I125]-NDP-α-MSH, hMC4r HEK-293 membranes
T1 construct: whole, on cells; cAMP assays on whole cells; also called hMC4r; MC4r
T1 sequence (P32245 whole entry): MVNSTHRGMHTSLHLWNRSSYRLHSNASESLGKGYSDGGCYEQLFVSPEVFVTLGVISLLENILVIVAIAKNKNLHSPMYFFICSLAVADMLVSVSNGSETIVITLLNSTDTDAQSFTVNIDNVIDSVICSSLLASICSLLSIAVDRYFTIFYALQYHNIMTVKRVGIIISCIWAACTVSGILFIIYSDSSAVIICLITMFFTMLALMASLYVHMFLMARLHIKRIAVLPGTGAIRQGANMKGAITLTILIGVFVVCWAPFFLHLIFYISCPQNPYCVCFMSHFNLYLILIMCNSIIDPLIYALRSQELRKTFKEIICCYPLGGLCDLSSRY

[2] = biological target: T1, human melanocortin receptor-4; test: cell-based or functional assay
[3] = biological target: human melanocortin receptor-1 (human, UniProt Q01726 1-317); test: cell-based or functional assay
human melanocortin receptor-1, sequence (Q01726 whole entry): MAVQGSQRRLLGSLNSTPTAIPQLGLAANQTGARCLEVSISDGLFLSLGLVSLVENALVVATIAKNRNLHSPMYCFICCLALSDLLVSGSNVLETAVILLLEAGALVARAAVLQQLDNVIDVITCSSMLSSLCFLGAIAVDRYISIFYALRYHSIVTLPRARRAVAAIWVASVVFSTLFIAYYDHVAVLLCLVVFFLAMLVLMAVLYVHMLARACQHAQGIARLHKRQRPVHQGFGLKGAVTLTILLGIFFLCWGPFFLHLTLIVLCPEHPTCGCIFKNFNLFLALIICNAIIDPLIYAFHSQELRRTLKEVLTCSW

[4] = biological target: T1, human melanocortin receptor-4; test: cell-based or functional assay; remark: listed apart in the source
[5] = biological target: T1, human melanocortin receptor-4; test: ratio of Ki at hMC1r to Ki at hMC4r
[6] = biological target: T1, human melanocortin receptor-4; test: competition with Eu-NDP-α-MSH, hMC4r HEK-293 membranes
Experimental: After incubation for 90 minutes at 37° C., the reaction was stopped by filtration over AcroWell 96-well filter plates (Pall Life Sciences). The filter plates were washed 4 times with 200 μL of ice-cold phosphate-buffered saline. DELFIA Enhancement solution (PerkinElmer Life Sciences) was added to each well. The plates were incubated on a shaker for 15 minutes and read at 340 nm excitation and 615 nm emission wavelengths. Each assay was conducted in duplicate and mean values were utilized. Ki values were determined by curve-fitting with Graph-Pad Prism® software using a one-site fixed-slope competition binding model.

Row | Binder | hMC1r EC50 [3] [nM] | hMC1r Emax [3] [%] | hMC4r Emax [4] [%] | also measured
1 | Ac-RE[Dab][dF]RW[Orn]-NH2 (lactam 2-7, also called Ac-Arg-cyclo(Glu-Dab-D-Phe-Arg-Trp-Orn)-NH2) [Peptide No. 165] |  |  |  | Ki [1]: 0.65 nM
2 | Ac-RDH[dF]RWK-NH2 (lactam 2-7) [Peptide No. 1] |  |  |  | intrinsic activity (cAMP, NDP-α-MSH is 100%) [2]: 91%
3 | Ac-RDQ[dF]RWK-NH2 (lactam 2-7) [Peptide No. 32] |  |  |  | intrinsic activity (cAMP, NDP-α-MSH is 100%) [2]: 98%
4 | Ac-R[Aad]H[dF]RW[Dab]-NH2 (lactam 2-7) [Peptide No. 126] |  |  |  | intrinsic activity (cAMP, NDP-α-MSH is 100%) [2]: 101%
5 | Ac-RDV[dF]RWK-NH2 (lactam 2-7) [Peptide No. 16] |  |  |  | intrinsic activity (cAMP, NDP-α-MSH is 100%) [2]: 42%
6 | RDRFRWK (N-terminal Ac; D-Phe 4; cyclo(Asp 2-Lys 7); C-terminal OH, also called Ac-Arg-cyclo(Asp-Arg-D-Phe-Arg-Trp-Lys)-OH) [Peptide No. 73] |  |  |  | Ki [6]: 60 nM
7 | RDRFRWK (N-terminal Ac; D-Phe 4; cyclo(Asp 2-Lys 7); C-terminal NH2, also called Ac-Arg-cyclo(Asp-Arg-D-Phe-Arg-Trp-Lys)-NH2) [Peptide No. 28] |  |  |  | Ki [6]: 4 nM
8 | Ac-[dR]DQ[dF]RWK-NH2 (lactam 2-7) [Peptide No. 71] |  | 88 | 89 | 
9 | Ac-[dR][Orn]Q[dF]RWE-NH2 (lactam 2-7) [Peptide No. 152] |  | 85 | 89 | 
10 | Ac-R[Orn]N[dF]RWE-NH2 (lactam 2-7) [Peptide No. 154] | 25 |  |  | 
11 | Ac-R[Orn]Q[dF]RWE-NH2 (lactam 2-7) [Peptide No. 150] |  | 89 |  | 
12 | Ac-RKN[dF]RWD-NH2 (lactam 2-7, also called Ac-Arg-cyclo(Lys-Asn-D-Phe-Arg-Trp-Asp)-NH2) [Peptide No. 155] | 14 | 91 | 97 | hMC4r EC50 [4]: 0.189 nM; binding selectivity, MC4r against MC1r [5]: 20 fold
13 | Ac-R[Dab]H[dF]RW[Aad]-NH2 (lactam 2-7) [Peptide No. 128] |  |  |  | intrinsic activity (cAMP, NDP-α-MSH is 100%) [2]: 95%

The next lines start with results.

Row | hMC1r EC50 [3] [nM] | hMC1r Emax [3] [%] | hMC4r Emax [4] [%] | Binder | also measured
14 | 26 | 98 | 99 | RXQFRWX (N-terminal Ac; Dab 2 (X); D-Phe 4; hGlu 7 (X); cyclo(Dab 2-hGlu 7); C-terminal NH2, also called Ac-Arg-cyclo(Dab-Gln-D-Phe-Arg-Trp-hGlu)-NH2) [Peptide No. 159] | hMC4r EC50 [4]: 0.825 nM; binding selectivity, MC4r against MC1r [5]: 20 fold
15 |  |  | 98 | Ac-R[Aad]N[dF]RW[Dab]-NH2 (lactam 2-7, also called Ac-Arg-cyclo(hGlu-Asn-D-Phe-Arg-Trp-Dab)-NH2) [Peptide No. 160] | hMC4r EC50 [4]: 0.245 nM
16 | 80 | 81 |  | Ac-[dR][Orn]N[dF]RWE-NH2 (lactam 2-7) [Peptide No. 156] | 
17 | 13 | 85 | 91 | Ac-REN[dF]RW[Orn]-NH2 (lactam 2-7, also called Ac-Arg-cyclo(Glu-Asn-D-Phe-Arg-Trp-Orn)-NH2) [Peptide No. 161] | hMC4r EC50 [4]: 0.413 nM; binding selectivity, MC4r against MC1r [5]: 20 fold
18 | 22 | 89 | 82 | Ac-RKN[dF]R[2Nal]D-NH2 (lactam 2-7; SMILES CC(=O)N[C@@H](CCCNC(=N)N)C(=O)N[C@H]1CCCCNC(=O)C[C@@H](C(N)=O)NC(=O)[C@H](Cc2ccc3ccccc3c2)NC(=O)[C@H](CCCNC(=N)N)NC(=O)[C@@H](Cc2ccccc2)NC(=O)[C@H](CC(N)=O)NC1=O, also called Ac-Arg-cyclo(Lys-Asn-D-Phe-Arg-Nal2-Asp)-NH2) [Peptide No. 162] | hMC4r EC50 [4]: 0.85 nM; binding selectivity, MC4r against MC1r [5]: 20 fold
